Laboratory results published in a protein production outcome set (Wang et al. 2014).

Assay: label from the status in PepcDB records
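Also: failed if final PepcDB status was selected cloned or expressed and not failed if soluble or beyond.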

| Sequence | protein production |
| --- | --- |
| MWEPACKNRTRTLAGLAPLLASIQSPSPPSVVLRLDPSTRTQALCPHPATARGNPMSRIFITGSTDGLGLAAARTLISQGHDVVLHARSRQRAAAIADTSAAALSLVIGDLASAAETRSIADQVNAFGRMDAVIHNAGIYLERSRGETPEGHAKTLAVNVLAPYLLTAWITRPDRLIYLSSGMHRSGASTLDDIDWKRRPWNASQAYSESKLYIATLAALARHWPDALSNAVDPGWVPTKMGGAGAPDDLEMGHLTQTWLATSDEGAAKVSGGYWYHRQRREAAAEVGDVGFQEALVGRLAELTGVRLFAERG | failed |
| MWFQLSSLRSILNVSTALRQVVVRTPWYAKRKSYKVLFWREITPLAIPIFLENTCVLLMGVLSTFLVSWLGKEAMAGVGLADSFNMVIMAFFAAIDLGTTVVVAFSLGKRDRRRARAAARQSLVIMTLFAVVLAVVIHYFGSEIINIVAGEATPEVKGLALTYLELTVLSYPAAAIALIGSGALRGAGNTKIPLMINGGMNILNIVISSILIYGAFSWQGLGFAGAGLGLTISRYIGAVAIIWVLMIGFNPALRIPLKSYLKPLNFGIIWEVMGIGIPASIESVLFNGGKLLTQMFVAGMGTNVIAGNFIAFSVAALINLPGNALGSASTIITGKRLGTGQIGQAERQLRHVFWMSTIVLTAIAWGTAPFAGLFASFYTQEQDVKEVVKVLLWLNAAFMPIWAAAWVLPSGFKGARDVRFAMWVSMLGMWGCRVVAGYTLGIVLGMGVVGVWLGMFLDWAVRGALFYWRLISGRWLWRYPRVKRE | failed |
| MWGRLLLWPLVLGFSLSGGTQTPSVYDESGSTGGGDDSTPSILPAPRGYPGQVCANDSDTLELPDSSRALLLGWVPTRLVPALYGLVLVVGLPANGLALWVLATQAPRLPSTMLLMNLATADLLLALALPPRIAYHLRGQRWPFGEAACRLATAALYGHMYGSVLLLAAVSLDRYLALVHPLRARALRGRRLALGLCMAAWLMAAALALPLTLQRQTFRLARSDRVLCHDALPLDAQASHWQPAFTCLALLGCFLPLLAMLLCYGATLHTLAASGRRYGHALRLTAVVLASAVAFFVPSNLLLLLHYSDPSPSAWGNLYGAYVPSLALSTLNSCVDPFIYYYVSAEFRDKVRAGLFQRSPGDTVASKASAEGGSRGMGTHSSLLQ | failed |
| MWHSIEQAISVETGKSFYISEKKEISTRPASSSSFTCSYDNKEPPPNLSFKITDGHRSYFLKINNKDYLENFQAEAYSLKQLNSLANIASPNVTAIGTSLDKSFLVLDYIDFSKAKPMLWYQLGQQLAQMHYENRHGQFGWQHDNFIGSTIQPNHWSSNWTTFFSDQRIAWQLQLLSERSIMLGNIEHITQVCHDALLHHQVSPCLVHGDLWQGNTGFSGEKAMIFDPACYYGDREVDIAMTELFGHFPDDFYHGYQAEYPLDDGYEQRKLVYNFYHILNHANIFGGIYIDQAKATLSRIMSLPLHLEHHHHHH | failed |
| MWLRRKRAPVNGVVTLDRRHLYILPTRGGIGFSVLLATMLLTSLNYAISLGFALTFLLAGIGMGCMWMAYRNLLDLRVSAGPVTPAFVGECAIFTLHVDNQDAAARIGIEARTPLSGADTETAALTLDGVSSGTLPVRLSAIRRGRLVLPRVTLSSRFPFGLFRVWSYADLGLATVVYPAPEASPPPLPRHPQSDDADDGAASFAADDGIDQLRRYRPGDPLHRIAWKHSARTGKWLTRSGHTPQQPSCWIDWNTLPPAMDTEARLSRLCAWVLMAGEVSEIGLRLPGVEITPGRGSAHVRACLEALALWPERRAR | failed |
| MWNATPSEEPGFNLTLADLDWDASPGNDSLGDELLQLFPAPLLAGVTATCVALFVVGIAGNLLTMLVVSRFRELRTTTNLYLSSMAFSDLLIFLCMPLDLVRLWQYRPWNFGDLLCKLFQFVSESCTYATVLTITALSVERYFAICFPLRAKVVVTKGRVKLVIFVIWAVAFCSAGPIFVLVGVEHENGTDPWDTNECRPTEFAVRSGLLTVMVWVSSIFFFLPVFCLTVLYSLIGRKLWRRRRGDAVVGASLRDQNHKQTVKMLAVVVFAFILCWLPFHVGRYLFSKSFEPGSLEIAQISQYCNLVSFVLFYLSAAINPILYNIMSKKYRVAVFRLLGFEPFSQRKLSTLKDESSRAWTESSINT | failed |
| MWNATPSEEPGFNLTLADLDWDASPGNDSLGDELLQLFPAPLLAGVTATCVALFVVGIAGNLLTMLVVSRFRELRTTTNLYLSSMAFSDLLIFLCMPLDLVRLWQYRPWNFGDLLCKLFQFVSESCTYATVLTITALSVERYFAICFPLRAKVVVTKGRVKLVIFVIWAVAFCSAGPIFVLVGVEHENGTDPWDTNECRPTEFAVRSGLLTVMVWVSSIFFFLPVFCLTVLYSLIGRKLWRRRRGDAVVGASLRDQNHKQTVKMLGGSQRALRLSLAGPILSLCLLPSL | failed |
| MWNLTRRQWRQILVTVILALAVLLFFLWPLPKYIEGPGEADNLKSFVTVDKHPDKHKGKYMITSVALAQARPVSYLYAKFNPYYSIESVASVTGGESNATYDKVQNFYMKSAINESIYTAYRAAHKTVKRHYLGIYVLSVDRQSPFAQALKVGDTVTEVNGHHFNSMTGYQRYIQRQKVGQRATITYQRNGKTHHVTAKLMRLPTKKAGIGITLTDNVKVSARPKVQVNPGNIGGPSGGLMFSLQIYTQVTGQDLRHGRKIAGTGTVDGDGNVGEIGGIDKKIIAAKRAGATVFFAPYVKPTKLLLKYEEQHQTNYQLAKATAKKYAPNMKVVPVKSFDDAVHYLRTHR | failed |
| MWPDRRLIDLFKTEFPIVLAPMAGVMDAELVIAAAQGGALGSLPCAMLSAEKAREQVGLIRQRVKAPVNMNFFCHTPVDLTPEAEARWKQRLAGYYREHGLDPAAPISAANRAPFDAAFCEVVEELKPDVVSFHFGLPEQELLKRVKAAGSLVISSATTVKEAVWLERHGADAVIAQGAEAGGHRGMFLTDKIAEQPGTFALVPQVADAVKVPVIAAGGIADGRGIAAAFALGASGVQIGSAYLRCPESKVSAAGRAALAEGRDDSTVITNVMTGRPARGVQNRLMREAGPISPDAPPFPHAATALGPLKAAAEKQGRVDFTNLWAGQAIALGRELPAAELTRDLAKSALARMKALAG | failed |
| MWPQDPSRKEVLRFAVSCRILTLMLQALFNAIIPDHHAEAFSPPRLAPSGFVDQLVEGLLGGLSHWDAEHFLFIAEHGYLYEHNFAFFPGFPLALLVGTELLRPLRGLLSLRSCLLISVASLNFLFFMLAAVALHDLGCLVLHCPHQSFYAALLFCLSPANVFLAAGYSEALFALLTFSAMGQLERGRVWTSVLLFAFATGVRSNGLVSVGFLMHSQCQGFFSSLTMLNPLRQLFKLMASLFLSVFTLGLPFALFQYYAYTQFCLPGSARPIPEPLVQLAVDKGYRIAEGNEPPWCFWDVPLIYSYIQDVYWNVGFLKYYELKQVPNFLLAAPVAILVAWATWTYVTTHPWLCLTLGLQRSKNNKTLEKPDLGFLSPQVFVYVVHAAVLLLFGGLCMHVQVLTRFLGSSTPIMYWFPAHLLQDQEPLLRSLKTVPWKPLAEDSPPGQKVPRNPIMGLLYHWKTCSPVTRYILGYFLTYWLLGLLLHCNFLPWT | failed |
| MWQLLSRLNKNLVLTIPAMMAAGFVFGLVTETGFLKELIIPFTFLMVYPMMVTLKLKKVLEGGDGKAQLFTQFINFAVVPFVAFGLGRLFFADRPYMALGLLLAALVPTSGMTISWTGFARGNLEAAVKMTVVGLILGSIATPFYVQALMGAHVEVDMTGIMKQIAVIVFLPMAVGYATQRYLIAKHGQKGFQEQWAPRFPCLSTLGVLGIVFIAIALKAQAIAARPQDLLAILLPLAILYGINYSLSTVVGRLFLPRGDAIALAYGTVMRNLSIALAVAMNAFGKAGSDAALVIALAYIIQVQSAAWYVKFTGTLFGEAPAPSCPAPRRN | failed |
| MWSFIQKIFKALIIAPLDFITKYFKSFVLLLIVLVFFSAKESAPSAPPNLAKLYLNGAIFSTEDFDKEVDKILKTPSIKGVLLLIDSPGGAVSASVELSEKIADLKQKMPVLAYARGVMASGSYYAGMQASEVYASKASLIGSIGVIFSGANVENLLNKVGVATQGVHAGEYKEIGTFTRAWKPNEKDFLQNLVNEQYQMFVNDVAKARKLDAKDYKDFAEGKVFSAQKALKLKLIDKISTIKQAQDRLMELSKVKKAYWLEKSPMERFIEKATQSATNIITQAFGYQLLMR | failed |
| MWTTNIIKTPRGKFEYFLKGEGPPLCVTHLYSEYNDNGNTFANPFTDHYSVYLVNLKGCGNSDSAKNDSEYSMTETIKDLEAIREALYINKWGFAGHSAGGMLALVYATEAQESLTKIIVGGAAASKEYASHKDSIYCSKNVKFNRIVSIMNALNDDSTVQEERKALSREWALMSFYSEEKLEEALKLPNSGKTVGNRLNYFRQVEYKDYDVRQKLKFVKIPSFIYCGKHDVQCPYIFSCEIANLIPNATLTKFEESNHNPFVEEIDKFNQFVNDTL | not failed |
